Test results published in US20030211537A1.

What was measured:
[1] = target: rat µ opioid receptor (rat) (UniProt P33535); test: competition vs [3H]DAMGO, COS-7 membranes
[2] = target: H278N mutant mouse delta opioid receptor (mouse) (UniProt P32300); test: competition vs 3H-naltrindole, COS-7 membranes
[3] = target: mouse kappa opioid receptor (mORK1) (mouse) (UniProt P33534); test: competition vs [3H]U-69,593, COS-1 membranes

| Substance | Ki [1] [nM] | IC50 [3] [nM] | also measured |
| --- | --- | --- | --- |
| dermorphin (peptide) | 0.33 |  |  |
| D-Ala2-deltorphin II (peptide) |  |  | Ki [2]: 4 nM |
| [D-Ala2, F5Phe4]Dynorphin (1-13)NH2 (from UniProt P01213 207-219) (peptide) |  | 19 |  |
| [D-Ala2, F5Phe4]Dynorphin (1-17)NH2 (from UniProt P01213 207-223) (peptide) |  | 0.2 |  |
| morphiceptin (peptide) | 56 |  |  |
| PLO17 (peptide) | 30 |  |  |
